This note sets out measurements from the nanobody polyreactivity screen of Harvey et al. (2022).

A short description of this data set: yeast display, Sf9 membrane polyspecificity reagent, FACS + sequencing; frameworks hold sequencing errors. Put shortly: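 Genes from sorted yeast were amplified by colony PCR, read by MiSeq 2 × 250 sequencing and filtered on CDR length. These cells carried a synthetic nanobody library in Saccharomyces cerevisiae BJ5465 and were sorted by FACS into low and high (top ~1%) gates on anti-HA and streptavidin fluorescence. Polyreactivity is labelled according to the gate of origin.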
For the sequence “QVQLVESGGGLVQAGGSLRLSCAASGSTFLDYAMGWYRQAPGQERELVAAITSVGGTYADSVKGRFTISRDKAKNTVYLQKNSLKPEDTAGYYCAADADFWYYVVHRGSTFDYSGQGTQVTVSS”, the “polyreactivity (PSR sort gate)” value is listed as “low polyreactivity”.

As to “QVQLVESGGGLVQAGGSLRLSCAASGSTFLDYTMGWYRHAPGKERELVAVIYYRAGSTYYADSVKGRFTISRDNAKNTVYLQMNSLKPEDTAVYYCNADYYNFWRRRRYLWYESWGQGTQVTVSS”, the “polyreactivity (PSR sort gate)” value is reported as “low polyreactivity”. As for “QVQLVESGGGLVQAGGSLRLSCAASGSTFLGYTMGWYRQAPGKERELVAAISRRGSSTYYADSVKGRFTISRDNAKNTVYLQMNSLKPEDTAVYYCAAYATSFRDGYWGQGTQVTVSS”, the “polyreactivity (PSR sort gate)” value is “high polyreactivity”.

As for “QVQLVESGGGLVQAGGSLRLSCAASGSTFLHYAMGWYRQAPGKEREFTYYADSVKGRFTISRDNAKNTVYLHMNSLNPEDTAVYYCNAGPYWSPYGDDFGYWGQGTQVTVSS”, the “polyreactivity (PSR sort gate)” value is “low polyreactivity”. In the case of “QVQLVESGGGLVQAGGSLRLSCAASGSTFLKNAMGWSRQAPGKERELVAAISYSTTRTYYADSVKGRFTISRDNAKNTVYLQMNSLKPEDTAVYYCNKASYWGSGFDYWGQGTQVTVSS”, the “polyreactivity (PSR sort gate)” value is “low polyreactivity”. Turning to “QVQLVESGGGLVQAGGSLRLSCAASGSTFLLNTMGWYRQAPGKERELVAAISSITGDTYYADSVKGRFTISRDNAKNTVYLQMNSLNPEDTAVYYCAAYLSETRPYLYDYWGQGTQVTVSS”, the “polyreactivity (PSR sort gate)” value was “low polyreactivity”.

“QVQLVESGGGLVQAGGSLRLSCAASGSTFLLYDMGWYRQAPGKERELVAAITWSGGSTYYADSVKGRFTISRDNAKNTVYLQMNSLKPEDTAVYYCAADSLGDRYYYWGQGTQVTVSS”: the “polyreactivity (PSR sort gate)” value is listed as “low polyreactivity”.

With “QVQLVESGGGLVQAGGSLRLSCAASGSTFLNYAMGWYRQAPGKERELVAAISGRGGRTYYADSVKGRFTISRDNAKNTVYLLMNSLKPEDTAVYYCAARKWVSYTSYDYWGQGTQVTVSS”, the “polyreactivity (PSR sort gate)” value is reported as “high polyreactivity”.

“QVQLVESGGGLVQAGGSLRLSCAASGSTFLPNAMGWYRQAPGKERELVAAISYRGGGTFYADSVKGRFTISRDNAKNTVYLQMNSLKPEDTAVYYCADDWSWFDNFDYWGQGTQVTVSS”: the “polyreactivity (PSR sort gate)” value is given as “low polyreactivity”.

Regarding “QVQLVESGGGLVQAGGSLRLSCAASGSTFLRNAMGWYRQAPGKERELVAAISWSAGSTYYADSVKGRFTISRDNAKNTVYLQMNSLKPEDTAVYYCAVDKYVFVSYSFYFEYDYWGQGTQVTVSS”, the “polyreactivity (PSR sort gate)” value was “low polyreactivity”. Under “QVQLVESGGGLVQAGGSLRLSCAASGSTFLRYAMGWYRQAPGKERELVAAISVSGGSTYYADSVKGRFTISRDNAKNTVYLQMNCLKPEDTAVYYCAAVYKRLQPYGYWGQGTQVTVSS” stands “high polyreactivity”; under “QVQLVESGGGLVQAGGSLRLSCAASGSTFLRYAMGWYRQAPGTERELVAALSYSGGSTYYADSVKGRFTISRDTAKKTVSLQMNSLKPEDTAVYYCNAGVFANDNGGRLDQFTWEYEYWGQGTQVTVSS”, “low polyreactivity”; under “QVQLVESGGGLVQAGGSLRLSCAASGSTFLRYTMGWYRQAPGKARELVAAITRSGGSTYYADSVKGRFTISRDTAKNTVYLQMNSLKPEDTAVYYCAKRYRVAYGYWGQGTQVTVSS”, “high polyreactivity”. Turning to “QVQLVESGGGLVQAGGSLRLSCAASGSTFLSNAMGWYRQAPGKERELVASINWIGGSTRYADSVKGRFTISRDNAKNTVYLQMNSLKPEDTAVYYCAVELWWKWPFYYWGQGTQVTVSS”, the “polyreactivity (PSR sort gate)” value is listed as “high polyreactivity”.

“QVQLVESGGGLVQAGGSLRLSCAASGSTFLSYAMGRYRQAPGKERELVAAITGSGGNTYYADSVKGRFTISRDNAKNSVYLQMNSLKPEDTAVYYCAADTSYWYDYYIDYVGYYYWGQGTQVTVSS”: the “polyreactivity (PSR sort gate)” value is reported as “high polyreactivity”. Take “QVQLVESGGGLVQAGGSLRLSCAASGSTFLSYAMGWYRQAPGKEREMVAAISYSAGSTYYADSVKGRFTISRDNAKNTVYLQMNSLKPEDTAVYYCGAVQLVPGYVDSNDYYWGQGTQVTVSS”: the “polyreactivity (PSR sort gate)” value is given as “low polyreactivity”. For “QVQLVESGGGLVQAGGSLRLSCAASGSTFLSYVMGWYRQAPGKERELVAAISGITGSTYYADSVKGRFTLSRDNAKNTVYLQMNSLKPQDTAVYYWAKVYGYNRLFYYRYDYWGQGTQVTVSS”, the “polyreactivity (PSR sort gate)” value is “high polyreactivity”. As to “QVQLVESGGGLVQAGGSLRLSCAASGSTFLSYVMGWYRQAPGKERELVAAITGTGGRTYYADSVKGRFTISRDNAKNTVYLQMNSLKPEDSAVYYCTAYRKHGYDYWGQGTQVTVSS”, the “polyreactivity (PSR sort gate)” value is given as “high polyreactivity”. The value for “QVQLVESGGGLVQAGGSLRLSCAASGSTFLTNDMGWYRQAHGKERELVAVITDGDTTYADSVKGRFTISRDNAKNTVYLQMNSLKPEDTAVYYCAADENYWSAGYDYWGQGTQVTVSS” was “low polyreactivity”. For “QVQLVESGGGLVQAGGSLRLSCAASGSTFLTNVMGWYRQAPGKERELVAAITIGGSTNYADSVKGRFTISRDNAKNTVYLQMNSLKPEDTAVYYCATDIRRKPRYVDYEYWGQGTQVTVSS”, the “polyreactivity (PSR sort gate)” value is given as “low polyreactivity”.

For “QVQLVESGGGLVQAGGSLRLSCAASGSTFLVYAMGWYRQAPGKERELVAAIRSGGRTYYADSVKGRFTISRDNAKNTVYLQMNSLKPEDTAVYYCAADVLLRYGYRGYDYWGQGTQVTVSS”, the “polyreactivity (PSR sort gate)” value is given as “low polyreactivity”. As for “QVQLVESGGGLVQAGGSLRLSCAASGSTFLVYAMGWYRQAPGKERELVADITSRGGSTYYADSVKGRFTISRDNAKNTVYLQMISLKPEDTAVYYCAARKRFVLFDYWGQGTQVTVSS”, the “polyreactivity (PSR sort gate)” value is reported as “low polyreactivity”. For “QVQLVESGGGLVQAGGSLRLSCAASGSTFLVYAMGWYRQAPGKERELVAVITYSTVRTYYADSVKGRFTISRDNAKNTVYLQMNSLKPEDTAVYYCNADKEFAVLGQGMDYWGQGTQVTVSS”, the “polyreactivity (PSR sort gate)” value is “low polyreactivity”. In the case of “QVQLVESGGGLVQAGGSLRLSCAASGSTFLYNAMGWYRQAPGKERELVAAITIGGGSTYYADSVKGRFTISRDNAKNTVYLQMNSLKPEDTAVYYCNKGSYYWWDPGSTYIDDYWGQGTQVTVSS”, the “polyreactivity (PSR sort gate)” value was “low polyreactivity”. Consider “QVQLVESGGGLVQAGGSLRLSCAASGSTFLYNRMGWYRQAPGKERELVAAISSVGSTYYADSVKGRFTISRDNAKNTVYLQMNSLKPEDSAVYYCAASYDWRAYRRDFYYWLTGDYWGQGTQVTVSS”, for which the “polyreactivity (PSR sort gate)” value is “low polyreactivity”.

As for “QVQLVESGGGLVQAGGSLRLSCAASGSTFLYNTMGWYRQSPGKERELVAAITWSGGNTYYADSVKGRFTISRDNAKNTVYLQMNSLKPEDTAVYYCNAVWYPPKRKGFDYWGQGTQVTVSS”, the “polyreactivity (PSR sort gate)” value is reported as “low polyreactivity”. Consider “QVQLVESGGGLVQAGGSLRLSCAASGSTFLYYAMGWYRQAPGKERELVAAIRVGGGRTYYADSVKGRFTISRDNAKNTVYLQMNSLKPEDTAVYYCAAKRRHRVPFDYWGQGTQVTVSS”, for which the “polyreactivity (PSR sort gate)” value was “high polyreactivity”. Take “QVQLVESGGGLVQAGGSLRLSCAASGSTFLYYAMGWYRQAPGKERELVAVISWSGVSTYYADSVKGRFTISRDNAKNTVYLQMNSLKPEDTAVYYCNTGNHYIRTYGYWGQGSQVTVSS”: the “polyreactivity (PSR sort gate)” value was “low polyreactivity”. Under “QVQLVESGGGLVQAGGSLRLSCAASGSTFLYYAMGWYRQAPGKERELVAVISWSGVSTYYADSVKGRFTISRDNAKNTVYLQMNSLTPEDTAVYYCNTGNHYIRTYGYWGQGTQVTVSS” stands “low polyreactivity”; under “QVQLVESGGGLVQAGGSLRLSCAASGSTFLYYDMGWYRQAPGKERELVADITWSGSGTYYADSVKGRFTISRDNAKNTVYLQMNSLKPEDTAVYYCAADDTWRGDQYFYSYDYWGQGTQVTVSS”, “low polyreactivity”; under “QVQLVESGGGLVQAGGSLRLSCAASGSTFLYYGMGWYRQSPGYERELVATITWRGGRTYYADSVKGRYTISRDNAKNTVYLQMNSLKPEDTAVYYCARVRLTTYGYYSWGQGTQVTVSS”, “high polyreactivity”.

For the sequence “QVQLVESGGGLVQAGGSLRLSCAASGSTFLYYTMGWYRPAPGKERELVAAITSGGDTNYPDSVKGRFTISRDNAKNTVYLQMNSLKPEDTAVYYCNAEYTLSGTKIYTYKYDYRGQGTQVTVSS”, the “polyreactivity (PSR sort gate)” value is recorded as “low polyreactivity”.

For the sequence “QVQLVESGGGLVQAGGSLRLSCAASGSTFLYYTMGWYRQAPGKERELVAAITGSGTSTYYADSVKGRFTISRDNAKNTVYLQMNSLKPEDTAVYYCAARGHGRLYYWGQGTQVTVSS”, the “polyreactivity (PSR sort gate)” value is listed as “high polyreactivity”. As to “QVQLVESGGGLVQAGGSLRLSCAASGSTFNAYAMGWYRQAPGKERELVAAISYTGGSTYYADSVKGRFTISRDNAKNTVYLQMNSLKPDDTAVYYCARRQARKFYYWGQGTQVTVSS”, the “polyreactivity (PSR sort gate)” value is “high polyreactivity”. Consider “QVQLVESGGGLVQAGGSLRLSCAASGSTFNGNVMGWYRQAPGKERELVAGISKSGGTTYYADSVKGRFTISRDNAKNTVYLQMNSLKPEDTAVYYCAARGRVRYYPQYDYWGQGTQVTVSS”, for which the “polyreactivity (PSR sort gate)” value is given as “high polyreactivity”. For “QVQLVESGGGLVQAGGSLRLSCAASGSTFNHYAMGWYRQAPGKERELVAAITKSGGSTYADSVKGRFTISRDNAKNTVYLQMNSLKPEDTAVYYCAAGRRKYGTKGRGDYWGQGTQVTVSS”, the “polyreactivity (PSR sort gate)” value is listed as “low polyreactivity”. As to “QVQLVESGGGLVQAGGSLRLSCAASGSTFNIYAMGWYRQAPGKERELVATISWTGGRTFYADSVKGRFTISRDNAKNTVYLQMNSLKPEDTAVYYCNKASTGGYDYWGQGTQVTVSS”, the “polyreactivity (PSR sort gate)” value is listed as “high polyreactivity”.

For “QVQLVESGGGLVQAGGSLRLSCAASGSTFNIYVMGWYRQAPGKERELVADITTSGRTYYADSVKGRFTISRDNAKNTVYVQMNSLKPEDTAVYYCADATGTYGRGGYYWGQGTQLTVSS”, the “polyreactivity (PSR sort gate)” value is on record as “high polyreactivity”. The value for “QVQLVESGGGLVQAGGSLRLSCAASGSTFNKYAMGWYRPAPGKERELVAVITKRGGSTYYADSVKGRFTISRDNAKNTVYLQMNSLKPEDTAVYYCAASSLYYGYDYWGQGTQVTVSS” was “high polyreactivity”. “QVQLVESGGGLVQAGGSLRLSCAASGSTFNLNAMGWYRQAPGKERELVAAIDSGGRTNYADSVKGRFTISRDNAKNTVYLQMNSLKPEDTAVYYCAARVLPYLTPRRQMYYWGQGTQVTVSS”: the “polyreactivity (PSR sort gate)” value is “low polyreactivity”. As to “QVQLVESGGGLVQAGGSLRLSCAASGSTFNLYAMGWYRQAPGKERELVASISRSGVSTYYADSVKGRFTISRDNAKNTVYLQMNRLKPEDTAVYYCAVDKVLYRLYPGMDYWGQGTQVTVSS”, the “polyreactivity (PSR sort gate)” value was “low polyreactivity”.
